Reference: patent US20130210023, “NUCLEIC ACID […] AGAINST PLASMODIUM LACTATE DEHYDROGENASE AND HISTIDINE-RICH PROTEIN II AND USES […] FOR MALARIA DIAGNOSIS” (THE UNIVERSITY OF HONG KONG, published 2013)

Tests used:
[1] = biological target: T1, Plasmodium falciparum lactate dehydrogenase (PfLDH) (Plasmodium falciparum 3D7, UniProt Q76NM3 Q76NM3:1-316); assay: ITC; nanomolar Kd, value only in figure; N=0.451; 25 mM Tris-HCl pH 7.5, 0.1 M NaCl, 20 mM imidazole, 25 C; conditions: chain copies: 4 stated (tetramer in crystal)
[2] = biological target: human lactate dehydrogenase A1 (hLDHA1) (Homo sapiens, UniProt P00338 P00338:1-332); assay: ITC; no binding by ITC, EMSA and SPR; no AuNP color change
[3] = biological target: human lactate dehydrogenase B (hLDHB) (Homo sapiens, UniProt P07195 P07195:2-334); assay: as above; conditions: tags: His tag (pET-28a, HisTrap purified); chain copies: 4; last 8 nt disordered; not G4
Sequence of human lactate dehydrogenase B (hLDHB) (P07195 2-334, one chain of several): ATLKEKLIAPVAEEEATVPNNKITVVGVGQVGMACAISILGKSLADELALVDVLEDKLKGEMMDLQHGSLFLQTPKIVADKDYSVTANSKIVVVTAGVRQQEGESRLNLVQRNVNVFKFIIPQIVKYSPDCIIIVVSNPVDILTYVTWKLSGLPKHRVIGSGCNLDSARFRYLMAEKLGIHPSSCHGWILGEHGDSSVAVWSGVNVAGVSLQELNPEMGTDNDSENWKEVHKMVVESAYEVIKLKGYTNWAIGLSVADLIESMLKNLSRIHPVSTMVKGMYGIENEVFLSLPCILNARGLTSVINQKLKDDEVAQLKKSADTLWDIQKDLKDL

[4] = biological target: T1, Plasmodium falciparum lactate …; assay: structure; crystal structure, two aptamers per PfLDH tetramer; contacts residues 102-108, Asp53, Ile54 (A) and Lys62, His250 (B); conditions: chain copies: 4 stated (tetramer in crystal); last 8 nt disordered; not G4
[5] = biological target: T1, Plasmodium falciparum lactate …; assay: ITC; nanomolar Kd, value only in figure; N=0.152; 25 mM Tris-HCl pH 7.5, 0.1 M NaCl, 20 mM imidazole, 25 C; conditions: chain copies: 4 stated (tetramer in crystal)
[6] = biological target: T1, Plasmodium falciparum lactate …; assay: ITC; nanomolar Kd, value only in figure; N=0.177; 25 mM Tris-HCl pH 7.5, 0.1 M NaCl, 20 mM imidazole, 25 C; conditions: chain copies: 4 stated (tetramer in crystal)
[7] = biological target: T1, Plasmodium falciparum lactate …; assay: ITC; nanomolar, similar Kd and stoichiometry to 2009s; same buffer, 25 C; conditions: chain copies: 4 stated (tetramer in crystal)

TAGGTGGCCAGAAGGTAGAACCATAGTGGTCTGGTA (ssDNA) [2009s]: binds [1].

CTGGGCGGTAGAACCATAGTGACCCAGCCGTCTAC (ssDNA) [2008s]: no binding [2]; no binding [3]; binds [4].

ACGCGAGCAGGTGGTAGAATCATAATGGCCTGATC (ssDNA) [2004s]: binds [5].

AGAATGGCGGGAGAGCCTTAGCGACCATTCGTAC (ssDNA) [2021s]: binds [6].

B1: 2009 (2009s with 18-mer flanks on both ends) (ssDNA)
DNA: CGTACGGTCGACGCTAGCTAGGTGGCCAGAAGGTAGAACCATAGTGGTCTGGTACACGTGGAGCTCGGATCC
B1: binds [7].
